How the values were obtained:
[1] = molecular target: T1, integrin β1 (OPN receptor subunit) of mouse osteoblasts (mouse, UniProt P09055 21-798); experiment: co-immunoprecipitation from mouse osteoblast lysates, Western blot
T1 construct: Only the subunit is named; also called β1 integrin
Text: (§1) Then, was examined whether the interaction of OPN with the receptor is influenced by PTPμ deficiency. […] In contrast, levels of CD44 in OPN immunoprecipitates were similar in WT and PTPμ^{-/-} osteoblasts.

[2] = molecular target: T2, integrin α5 (OPN receptor subunit) of mouse osteoblasts (mouse, UniProt P11688 45-1053); experiment: as above
T2 construct: Only the subunit is named; also called α5 integrin
Text: as §1

T1 sequence (chain, as listed by the source limits assumed, chain 1 of 2): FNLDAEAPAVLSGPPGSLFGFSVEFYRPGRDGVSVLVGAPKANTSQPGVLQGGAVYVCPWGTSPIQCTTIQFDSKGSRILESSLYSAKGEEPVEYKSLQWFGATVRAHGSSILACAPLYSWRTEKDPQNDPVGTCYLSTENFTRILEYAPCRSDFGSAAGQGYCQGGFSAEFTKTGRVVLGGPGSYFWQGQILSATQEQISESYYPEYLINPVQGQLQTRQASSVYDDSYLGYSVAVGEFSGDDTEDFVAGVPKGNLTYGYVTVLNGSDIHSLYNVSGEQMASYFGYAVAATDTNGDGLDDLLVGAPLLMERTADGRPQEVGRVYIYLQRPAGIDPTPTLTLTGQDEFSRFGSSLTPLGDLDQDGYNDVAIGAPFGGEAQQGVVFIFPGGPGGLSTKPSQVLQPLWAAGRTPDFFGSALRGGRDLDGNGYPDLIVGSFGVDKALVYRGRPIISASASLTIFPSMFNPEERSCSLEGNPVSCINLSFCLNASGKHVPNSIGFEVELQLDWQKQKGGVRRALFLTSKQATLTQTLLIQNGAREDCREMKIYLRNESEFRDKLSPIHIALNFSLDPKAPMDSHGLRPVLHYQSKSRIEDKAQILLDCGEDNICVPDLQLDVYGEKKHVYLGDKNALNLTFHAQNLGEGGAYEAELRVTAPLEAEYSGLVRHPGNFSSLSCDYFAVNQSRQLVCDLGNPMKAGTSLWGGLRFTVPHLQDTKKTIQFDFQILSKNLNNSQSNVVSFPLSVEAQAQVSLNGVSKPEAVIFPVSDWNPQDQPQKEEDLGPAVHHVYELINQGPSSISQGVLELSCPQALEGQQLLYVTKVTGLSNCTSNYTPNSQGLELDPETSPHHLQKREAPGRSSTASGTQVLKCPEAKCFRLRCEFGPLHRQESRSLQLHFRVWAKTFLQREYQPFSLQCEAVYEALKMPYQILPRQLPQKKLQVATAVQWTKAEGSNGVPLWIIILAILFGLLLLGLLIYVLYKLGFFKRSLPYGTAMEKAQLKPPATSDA
T1 sequence (P09055 21-798 limits assumed, chain 2 of 2): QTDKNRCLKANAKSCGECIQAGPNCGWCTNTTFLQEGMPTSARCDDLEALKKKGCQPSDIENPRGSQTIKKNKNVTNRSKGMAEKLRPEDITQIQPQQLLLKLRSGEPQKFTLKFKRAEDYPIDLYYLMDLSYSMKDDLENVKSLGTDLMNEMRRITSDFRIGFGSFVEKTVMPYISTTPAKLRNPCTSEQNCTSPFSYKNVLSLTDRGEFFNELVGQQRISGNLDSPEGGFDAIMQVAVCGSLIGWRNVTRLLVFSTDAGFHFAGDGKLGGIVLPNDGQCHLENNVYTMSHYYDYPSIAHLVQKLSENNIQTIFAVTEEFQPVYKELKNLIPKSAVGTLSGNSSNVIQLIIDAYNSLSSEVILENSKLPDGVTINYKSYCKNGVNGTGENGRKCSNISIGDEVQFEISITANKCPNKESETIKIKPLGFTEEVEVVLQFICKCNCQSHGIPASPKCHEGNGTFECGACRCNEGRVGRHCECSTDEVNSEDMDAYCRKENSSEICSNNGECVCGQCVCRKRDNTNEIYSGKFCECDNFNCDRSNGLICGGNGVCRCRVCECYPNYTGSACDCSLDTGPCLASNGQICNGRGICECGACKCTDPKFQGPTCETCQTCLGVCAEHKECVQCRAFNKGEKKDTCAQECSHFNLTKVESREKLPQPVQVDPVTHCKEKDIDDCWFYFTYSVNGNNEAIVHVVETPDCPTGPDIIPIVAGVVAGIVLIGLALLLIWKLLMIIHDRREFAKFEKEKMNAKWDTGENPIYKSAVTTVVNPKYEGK
T2 sequence (P11688 45-1053 limits assumed, chain 1 of 2): as the sequence (chain, as listed by the source limits assumed, chain 1 of 2) above
T2 sequence (chain, as listed by the source limits assumed, chain 2 of 2): as the sequence (P09055 21-798 limits assumed, chain 2 of 2) above

- fold change of the level in the immunoprecipitates, PTPµ-/- osteoblasts against WT osteoblasts [1]: > 30 fold
- fold change of the level in the immunoprecipitates, PTPµ-/- osteoblasts against WT osteoblasts [2]: > 30 fold
B1: osteopontin (OPN), endogenous, in lysates of mouse osteoblasts (ligand)
chain: not shown
notes: Endogenous protein detected by Western blot with an anti-OPN antibody after immunoprecipitation of its receptors

From patent publication US20160291016A1 (CHU SAINTE JUSTINE, published 2016)
